Legend:
[1] = molecular target: T1, Tat AcK28 peptide TNCYCK-AcK-CCFH (SEQ ID NO:58) (Human Immunodeficiency Virus type 1); test: NMR 2D 1H-15N HSQC titration; 'binds weakly'
T1 construct: Synthetic peptide

[2] = molecular target: Tat AcK50 peptide SYGR-AcK-[…] (SEQ ID NO:50) (Human Immunodeficiency Virus type 1); test: NMR 2D 1H-15N HSQC titration; 'interacts strongly'
[3] = molecular target: T2, P/CAF (p300/CBP-associated factor), HA-tagged, expressed in cells (human, UniProt Q92831 1-832); test: interaction in cells, western blot (FLAG-Tat, HA-P/CAF)
T2 construct: also called HA-P/CAF

| Binder | Kd [1] [µM] | Kd [2] [µM] | binding result [3] |
| --- | --- | --- | --- |
| bromodomain of P/CAF (residues 719-832 of SEQ ID NO:2) (other, also called P/CAF bromodomain; the bromodomain) SKEPRDPDQLYSTLKSILQQVKSHQSAWPFMEPVKRTEAPGYYEVIRFPMDLKTMSERLKNRYYVSKKLFMADLQRVFTNCKEYNAAESEYYKCANILEKFFFSKIKEAGLIDK | < 300 | ~20 | – |
| Tat K50R/K51R mutant protein, FLAG-tagged, expressed in cells (other, also called Tat-RR; Tat double mutant containing K50R/K51R) MEPVDPRLEPWKHPGSQPKTASNNCYCKRCCLHCQVCFTKKGLGISYGRRRRRQRRRAPQDSKTHQVSLSKQPASQPRGDPTGPKESKKKVERETETDPED | – | – | no binding |

— patent US20040043378A1 (published 2004)
